Assay results reported in the supplement of paper PMC7125110.
± gives the standard error. Variants at the floor of the assay were thinned out.

B1: glmS ribozyme (parent)
chain: AUAAAAGCGCCAGAACUACAGAAAUGUAGUUGACGAGGAGGAGGUUUAUCGAAUUUUCGGCGGAUGCCUCCAAA

Variants of: B1
Experiment: self-cleavage kobs at 2500 uM GlcN6P; higher = faster cleavage; RNA array
Conditions: with glucosamine-6-phosphate
Outline: (§1)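 On sequenced MiSeq chips, barcoded ribozyme variants were made in situ by E. coli RNA polymerase and followed at 37 °C through a hybridised Cy3 probe. Glucosamine-6-phosphate was flowed in at 40 μM to 10 mM in HEPES/KCl/Mg(OAc)2 buffer. Exponential fits to normalised per-tile medians gave kobs, and weighted Michaelis–Menten fits gave kcat and KM.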

Variant	self-cleavage kobs at 2500 uM GlcN6P [s⁻¹]
AUAAAAGCGCCAGAACUACAGAAAUGUAGUUGACCAGUAGGAGGUUUAUCGAAUUUUCCGCGGAUGCCGCCAAA	< 1e-05
AUAAAAGCGCCAGAACUACAGAAAUGUAGUUGACGAAGAGGAGGUUUAUCGAAUUCUCGGCGGAUGCCUCCAAA	0.000299 ± 7.3e-05
AUAAAAGCGCCAGAACUACAGAAAUGUAGUUGACGGGGAGGAUGUUUAUCGAAUUUUCGGCGGAUGCCUGCAAA	< 1e-05
AUAAAAGCGCCAGAACUACAGAAAUGUAGUUGACGACGAGGAGGGGUAUCGAAUUUUCGCCGGCUGCCUCCAAA	< 1e-05
AUAAAAGCGCCAGAACUACAGAAAUGUAGUUGACCAGCAGGAGGUUUUUCGAAUUUUCGGCGGAUGCCUCCAAA	< 1e-05
AUAAAAGCGCCAGAACUACAGAAAUGUAGUUGACUAGGAGGAGGUUUAUCGAAUUUUCGACGGAUGCUUCCAAA	< 1e-05
AUAAAAGCGCCAGAACUACAGAAAUGUAGUUGACGAAGAGGAGGUUUAUCGAAUUUUCGGCGGAUGCAUGCAAA	< 1e-05
AUAAAAGCGCCAGAACUACAGAAAUGUAGUUGACGAAGAGGAGGUUUAUCGAAUUUUCGGCGGAUGCAUUCAAA	< 1e-05
AUAAAAGCGCCAGAACUACAGAAAUGUAGUUGACUAGGAGGAGGUUAAUCGAAUCUUCGGCGGAUGCCUCCAAA	< 1e-05
AUAAAAGCGCCAGAACUACAGAAAUGUAGUUGACGAAGAGAAGGUUUAUCGAAUUUUCGGUGGAUGCCUCCAAA	< 1e-05
AUAAAAGCGCCAGAACUACAGAAAUGUAGUUGACAAGGAGGAGGUAUAUCGAAUUUUCGGCGGGUGCCUCCAAA	< 1e-05
AUAAAAGCGCCAGAACUACAGAAAUGUAGUUGACUAGGAGUAGGUUUAUCGAAUUUUCGGCAGAUGCCUCCAAA	< 1e-05
AUAAAAGCGCCAGAACUACAGAAAUGUAGUUGACGCGGAGGUGGUUUAUCGAAUUUUCGGCGCAUGCCUCCAAA	< 1e-05
AUAAAAGCGCCAGAACUACAGAAAUGUAGUUGACUAUGAGGAUAUUUAUCGAAUUUUCGGCGGAUGCCUCCAAA	< 1e-05
AUAAAAGCGCCAGAACUACAGAAAUGUAGUUGACGUGGAUGAGGUUUAUCGAAUUUUCGGCCGAUCCCUCCAAA	< 1e-05
AUAAAAGCGCCAGAACUACAGAAAUGUAGUUGACCAGGACGAGGUUUAUCGAAUUUUCGGCGGAUGCCUUCAAA	< 1e-05
AUAAAAGCGCCAGAACUACAGAAAUGUAGUUGACGGGGAUGAGGCUUAUCGAAUUUUCGGCGGAUGUCUCCAAA	< 1e-05
AUAAAAGCGCCAGAACUACAGAAAUGUAGUUGACUAGGAGGAGGUUAAUCGAAUUUUCGGAGGAUGCCUCCAAA	< 1e-05
AUAAAAGCGCCAGAACUACAGAAAUGUAGUUGACCAGGAGGUGGUUUAUCGAAUUCUCGGCGGAUGCGUCCAAA	< 1e-05
AUAAAAGCGCCAGAACUACAGAAAUGUAGUUGACUAGGAGGAGGUUUAUGGAAUUUUCGGCGGAUACCUCCAAA	7.38e-05 ± 3.6e-05
AUAAAAGCGCCAGAACUACAGAAAUGUAGUUGACGUGGAGGGGGUUUAGCGAAUUCUCGGCGGAUUCCUCUAAA	< 1e-05
AUAAAAGCGCCAGAACUACAGAAAUGUAGUUGACGCGGAUGAGGUUUAUCGAAUAGUCGGCGGAUGCCUGCAAA	< 1e-05
AUAAAAGCGCCAGAACUACAGAAAUGUAGUUGACGGGGAGGAGGUUUAUCGAAUUUUCGGGGGAUGGCGCAAAA	< 1e-05

Variant	self-cleavage kobs at 2500 uM GlcN6P [s⁻¹]
AUAAAAGCGCCAGAACUACAGAAAUGUAGUUGACGCGGAGGCGGUUUAUCGAACUUUCGGCGGAUGCCUCCAAA	< 1e-05
AUAAAAGCGCCAGAACUACAGAAAUGUAGUUGACCAGGAGGAGGUUUAUCGAUUUUUCGUUGGAUGCCUCCAAA	< 1e-05
AUAAAAGCGCCAGAACUACAGAAAUGUAGUUGACGCGGAGGACGUUUAUCCAAUUUUCGGAGGAUGCCUCUAAA	< 1e-05
AUAAAAGCGCCAGAACUACAGAAAUGUAGUUGACUAGGAUGAGGUUUAGCGAAUUUUCGGCGGAUGCCUCCAAA	< 1e-05
AUAAAAGCGCCAGAACUACAGAAAUGUAGUUGACGACGAGGAGAUUUAUCUAAUUUUCCGCGGAUGCCUCCAAA	< 1e-05
AUAAAAGCGCCAGAACUACAGAAAUGUAGUUGACCAGGAGGAGGUUUAUCGCAUUUUUGGCGGAUGCCUCCAAA	< 1e-05
AUAAAAGCGCCAGAACUACAGAAAUGUAGUUGACGUGGAGGGGGUUUAUCGAAUUUUCGUCGGAUGCCUACAAA	< 1e-05
AUAAAAGCGCCAGAACUACAGAAAUGUAGUUGACGUGGAGGAGGUAUAUCGAAUUGUCGGCGGAUGCCUCCAAA	< 1e-05
AUAAAAGCGCCAGAACUACAGAAAUGUAGUUGACGAAGCGGAGGUUUAUCGAAUUUUCGGCGUAUGCCUCCAAA	< 1e-05
AUAAAAGCGCCAGAACUACAGAAAUGUAGUUGACGAAGCGGAGGUUUAUCGAAUUUUCCGCGGAUGCCUCCAAA	< 1e-05
AUAAAAGCGCCAGAACUACAGAAAUGUAGUUGACGUGGAGGAGGUUUAUCGAAUUUUCGGCGGAAGCUUCCAAA	< 1e-05
AUAAAAGCGCCAGAACUACAGAAAUGUAGUUGACGUGGAGGAGGGUUAUCGAAUUUUCGGGGGAUGCCUCCAAA	< 1e-05
AUAAAAGCGCCAGAACUACAGAAAUGUAGUUGACGACGAGGAGGUUUAUCGAAUGUUCGGCGAAUGCCUCGAAA	< 1e-05
AUAAAAGCGCCAGAACUACAGAAAUGUAGUUGACGGGGAGGAGGUUUAUCGAAUAUUCGGCGGAGGCCUCCAAA	< 1e-05
AUAAAAGCGCCAGAACUACAGAAAUGUAGUUGACGGGGAGGAGGUUUGUCGAAUUUUCGGCGGAUGCCCCCAAA	< 1e-05
AUAAAAGCGCCAGAACUACAGAAAUGUAGUUGACGUGGAGGACGUUUAUCGACUUUUCGGCGGAUGCCUCGAAA	< 1e-05
AUAAAAGCGCCAGAACUACAGAAAUGUAGUUGACGGGGACGAGGUUUAUCGAAUUUUCGGUGCCUGCCUCCAAA	< 1e-05
AUAAAAGCGCCAGAACUACAGAAAUGUAGUUGACCAGGAGGGGGUUUACCGAAUUUUCGGCGGAUGCCUCCAAA	< 1e-05
AUAAAAGCGCCAGAACUACAGAAAUGUAGUUGACGGGGACGAGGUUUAUCGAAUUUUCGCCGGAUGCCUCCAAA	< 1e-05
AUAAAAGCGCCAGAACUACAGAAAUGUAGUUGACGAAGAGGAGGAUUAUCGUAUUUUCGACGGAUGCCUCCAAA	< 1e-05
AUAAAAGCGCCAGAACUACAGAAAUGUAGUUGACGGGGUGGAGGUUUAUCGAAUUUUCGGCUGAUGCCUCCAAA	< 1e-05
AUAAAAGCGCCAGAACUACAGAAAUGUAGUUGACGUGAAGGAGGUUCAUCGAAUUUUCGGCGGAUGCCUCCAAA	< 1e-05
AUAAAAGCGCCAGAACUACAGAAAUGUAGUUGACGAACAGGCGGUUUAUCGAAUUUUCGGCGGAUGCCUCCAAA	< 1e-05

Variant	self-cleavage kobs at 2500 uM GlcN6P [s⁻¹]
AUAAAAGCGCCAGAACUACAGAAAUGUAGUUGACGUGGAGGAGAUUUCUCGAAUUUCCGGCGGAUGCCUCCAAA	< 1e-05
AUAAAAGCGCCAGAACUACAGAAAUGUAGUUGACGACGAGGAGGUUUAUGGAAGUUUCGGCGUUUGCCUCCAAA	6.2e-05 ± 3e-05
AUAAAAGCGCCAGAACUACAGAAAUGUAGUUGACGAAGAGGAGGUUUACCGAUUUUUCGGCGGAUGCCUCCAAA	< 1e-05
AUAAAAGCGCCAGAACUACAGAAAUGUAGUUGACGAAGAGGAGGUUUAUCGAUUUUUCGGCGGAUUCCUCCAAA	8.93e-05 ± 3.4e-05
AUAAAAGCGCCAGAACUACAGAAAUGUAGUUGACCAGGAGGAGGUUUAUCGAAUUUUCGGCGGAUGCUUCAAAA	< 1e-05
AUAAAAGCGCCAGAACUACAGAAAUGUAGUUGACUAGGAGGAGGUUUAUCGAAUUUACGGCGGAUGCCACCAAA	< 1e-05
AUAAAAGCGCCAGAACUACAGAAAUGUAGUUGACCAGGAGGAGGUUUAUCGAAUUUUGGUCGGACGCCUCCAAA	< 1e-05
AUAAAAGCGCCAGAACUACAGAAAUGUAGUUGACGGGGAGGAAGUUUUUCGGAUUUUCGGCGGAUGCCUCCAAA	< 1e-05
AUAAAAGCGCCAGAACUACAGAAAUGUAGUUGACGUGGAUGAGGUUUAUCGAAUUUUCGGCGGCUGCCUCCAAA	< 1e-05
AUAAAAGCGCCAGAACUACAGAAAUGUAGUUGACUAGGAGGAGGUUUAUCGAAUUUUCGGUGGAUGCCUUCAAA	< 1e-05
AUAAAAGCGCCAGAACUACAGAAAUGUAGUUGACCUGGAGCAGGUUUAUCUAAUUUUCGGCGGAGGCCUCCAAA	< 1e-05
AUAAAAGCGCCAGAACUACAGAAAUGUAGUUGACGACGAGGAGCUUUAUCGAAUUUUCGGCGGAUGUCUCCAAA	< 1e-05
AUAAAAGCGCCAGAACUACAGAAAUGUAGUUGACGCGGAGGAGAUUUAUCGAAUUUUCGGCGGAUGCCUACAAA	< 1e-05
AUAAAAGCGCCAGAACUACAGAAAUGUAGUUGACCAGGAGGAGGUUUAUAGAAUUUUCGGCGGAUGGCUCCAAA	< 1e-05
AUAAAAGCGCCAGAACUACAGAAAUGUAGUUGACCAGUAGGAUGUUUAUCGAAUUUUCGGCGGAUGCCUCCAAA	< 1e-05
AUAAAAGCGCCAGAACUACAGAAAUGUAGUUGACGAAGAGGAGUUUUAUCUAAUUUUCGGCGGAUACCUCCAAA	< 1e-05
AUAAAAGCGCCAGAACUACAGAAAUGUAGUUGACCAGGAGGAGGUAUAUCGAAUUUUCGGCGGAUGGCUCCAAA	< 1e-05
AUAAAAGCGCCAGAACUACAGAAAUGUAGUUGACGUGCAGGAGGUUGAUCGAAUUUUCGGCGGAUGCCUCCAAA	< 1e-05
AUAAAAGCGCCAGAACUACAGAAAUGUAGUUGACCGGGAUGAGGUUUAUCGAAUUUUCGGCGGAUGCCUUCAAA	< 1e-05
AUAAAAGCGCCAGAACUACAGAAAUGUAGUUGACGCGGAGGAGGUUUAACGAAUUAUCGGCGGAUGCCUCCAAA	< 1e-05
AUAAAAGCGCCAGAACUACAGAAAUGUAGUUGACGGGGAGGAGGUUUAUCGAAUUUUCGGCGGACGCGUCCAAA	< 1e-05
AUAAAAGCGCCAGAACUACAGAAAUGUAGUUGACGACGAGGAGGUUUAUCGAAUUUUCGGCUGAUGCCUCGAAA	< 1e-05

Variants of: B1
Experiment: self-cleavage kobs at 10000 uM GlcN6P; higher = faster cleavage; RNA array
Conditions: with glucosamine-6-phosphate
Outline: as §1

Variant	self-cleavage kobs at 10000 uM GlcN6P [s⁻¹]
AUAAAAGCGCCAGAACUACAGAAAUGUAGUUGACGAAGAGGAGGUUUAUCGAAUUCUCGGCGGAUGCCUCCAAA	0.000401 ± 5.4e-05
AUAAAAGCGCCAGAACUACAGAAAUGUAGUUGACUAGGAGUAGGUUUAUCGAAUUUUCGGCAGAUGCCUCCAAA	< 1e-05
AUAAAAGCGCCAGAACUACAGAAAUGUAGUUGACGUGGAGGGGGUUUAGCGAAUUCUCGGCGGAUUCCUCUAAA	< 1e-05
AUAAAAGCGCCAGAACUACAGAAAUGUAGUUGACCAGGAGGAGGUUUAUCGCAUUUUUGGCGGAUGCCUCCAAA	< 1e-05
AUAAAAGCGCCAGAACUACAGAAAUGUAGUUGACGACGAGGAGGUUUAUCGAAUGUUCGGCGAAUGCCUCGAAA	< 1e-05
AUAAAAGCGCCAGAACUACAGAAAUGUAGUUGACGUGAAGGAGGUUCAUCGAAUUUUCGGCGGAUGCCUCCAAA	< 1e-05
AUAAAAGCGCCAGAACUACAGAAAUGUAGUUGACCUGGAGCAGGUUUAUCUAAUUUUCGGCGGAGGCCUCCAAA	< 1e-05
